From patent US20190309033A1 (Eli Lilly, published 2019)

Legend:
[1] = biological target: T1, human GFRAL (NCBI Ref. Sequence No. NP_997293.2) expressed on HEK293 cells with human RET51 (human, UniProt Q6UXV0 19-394); assay: cell-based or functional assay
T1 sequence (looked up): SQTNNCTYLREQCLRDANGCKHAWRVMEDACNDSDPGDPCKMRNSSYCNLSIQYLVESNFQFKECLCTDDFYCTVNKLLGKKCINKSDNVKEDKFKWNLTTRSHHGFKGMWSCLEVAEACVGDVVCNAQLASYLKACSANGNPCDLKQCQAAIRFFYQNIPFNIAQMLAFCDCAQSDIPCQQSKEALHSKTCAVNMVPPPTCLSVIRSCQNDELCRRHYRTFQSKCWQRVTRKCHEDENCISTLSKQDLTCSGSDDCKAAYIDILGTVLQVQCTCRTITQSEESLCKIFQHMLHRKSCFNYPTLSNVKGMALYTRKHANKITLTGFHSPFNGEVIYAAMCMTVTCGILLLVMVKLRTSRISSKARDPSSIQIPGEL

[2] = biological target: T2, HIS-tagged human GFRAL ECD (human, UniProt Q6UXV0 20-338); assay: SPR, Biacore T200, 25 C; compound captured by immobilized anti-GDF15 antibody, GFRAL ECD as analyte; 1:1 fit
T2 construct: Produced in CHOK1 cell derivatives; also called Human GFRAL ECD (D1-D2-D3-ECD) Receptor; soluble human GFRAL extracellular domain
T2 sequence: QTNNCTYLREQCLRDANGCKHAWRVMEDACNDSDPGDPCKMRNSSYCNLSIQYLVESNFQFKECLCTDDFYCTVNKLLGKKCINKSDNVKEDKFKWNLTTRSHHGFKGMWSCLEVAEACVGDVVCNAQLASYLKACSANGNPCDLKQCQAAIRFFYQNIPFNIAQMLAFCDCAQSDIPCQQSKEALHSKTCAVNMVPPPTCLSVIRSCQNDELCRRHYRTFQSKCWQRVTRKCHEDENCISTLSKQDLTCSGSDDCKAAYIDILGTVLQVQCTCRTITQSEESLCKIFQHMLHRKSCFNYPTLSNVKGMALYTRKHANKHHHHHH
Procedure: To measure human GDF15 (des-ARN SEQ ID NO:1) or Compound 2 binding to human GFRAL ECD, a Biacore T200 Instrument is used to measure the binding kinetics of human GDF15 homodimer (des-ARN SEQ ID NO:1) and Compound 2 to the GFRAL ECD. Measurements are performed at 25° C. Samples are dissolved in HBS-EP+, pH 7.4 (GE Healthcare; 10 mM HEPES pH 7.4+150 mM NaCl+3 mM EDTA+0.05% surfactant P20). Goat […] GDF15 antibody (R&D) is immobilized on the flow cells of a CM5 sensor chip using amine coupling chemistry. GDF15 samples are prepared at 25 μg/ml by dilution into running buffer.
Human GFRAL ECD samples are prepared at final concentrations of 1000, 500, 250, 125, 62.5, 31.3, 15.6, 7.8, 3.9, 2.0 and 0 (blank) nM by dilution into running buffer. The SPR experiment includes the following steps: (1) capturing GDF15 samples on separate flow cells (Fc2, Fc3 and Fc4), (2) injecting 200 μl of human GFRAL ECD over all flow cells at […], (3) dissociating for 600 sec, (4) regenerating chip surfaces with a 10 μl (30 sec) injection of glycine, pH 1.5, at […], and (5) equilibrating chip surfaces with a 10 μl (30 sec) injection of HBS-EP+ at […]. Each concentration of human GFRAL ECD is injected in duplicate.
Data are processed using standard double-referencing and fit to a 1:1 binding model using Biacore T200 Evaluation Software to determine the association rate (kₒₙ, M⁻¹s⁻¹), dissociation rate (koff, s⁻¹) and maximum response (Rmax; response units (RU)). The equilibrium dissociation constant (KD) is calculated from the relationship KD=koff/kₒₙ (M).

B1: Mature human GDF15 (homodimer of two compounds including SEQ ID NO: 1) (ligand)
chain: ARNGDHCPLGPGRCCRLHTVRASLEDLGWADWVLSPREVQVTMCIGACPSQFRAANMHAQIKTSLHRLKPDTVPAPCCVPASYNPMVLIQKTDTGVSLQTYDDLLAKDCHCI
For B1, the “EC50 of ERK1/2 phosphorylation (AlphaLISA pERK1/2) in HEK293 cells expressing human GFRAL and human RET51” value [1] was 27.9 pM.

B2: Compound 2 (homodimer of two compounds including SEQ ID NO: 2) (Fc fusion)
chain: EAAGGPSVFLFPPKPKDTLMISRTPEVTCVVVDVSQEDPEVQFNWYVDGVEVHNAKTKPREEQFNSTYRVVSVLTVLHQDWLNGKEYKCKVSNKGLPSSIEKTISKAKGQPREPQVYTLPPSQEEMTKNQVSLTCLVKGFYPSDIAVEWESNGQPENNYKTTPPVLDSDGSFQLESRLTVDKSRWQEGNVFSCSVMHEALHNHYTQKSLSLSLGGGGGAPAPAPAPAPAPAPAPAPAPGGGGGDHCPLGPGRCCRLHTVRASLEDLGWADWVLSPREVQVTMCIGACPSQFRAANMHAQIKTSLHRLKPDTVPAPCCVPASYNPMVLIQKTDTGVSLQTYDDLLAKDCHCI
notes: Homodimer linked by at least one interchain disulfide bond between the GDF15 portions; also called homodimer of the Fc-GDF15 Compound 1
With B2 the “EC50 of ERK1/2 phosphorylation (AlphaLISA pERK1/2) in HEK293 cells expressing human GFRAL and human RET51” value [1] was 86.2 pM, the Kd [2] was 8.3 nM and the koff [2] was 0.00871 s⁻¹. The kon [2] was 1.05e+06 M⁻¹ s⁻¹.
